Laboratory results from the supplement of paper PMC10065799, “High-throughput profiling of sequence recognition by tyrosine kinases and SH2 domains using bacterial peptide display” (eLife, 2023).

Experiments:
[1] = biological target: Grb2 SH2 (UniProt P62993); assay: SH2 binding enrichment of the phosphorylated peptide, bacterial display (enrichment ratio); higher = better substrate or ligand; peptides without Tyr show the background
[2] = biological target: SHP2-C SH2; assay: as above
[3] = biological target: c-Src SH2; assay: as above
[4] = biological target: Jak2 (UniProt O60674); assay: phosphorylation enrichment, bacterial display (enrichment ratio); higher = better substrate or ligand; peptides without Tyr show the background
[5] = biological target: MERTK (UniProt Q12866); assay: as above
[6] = tested on: c-Abl (mouse); assay: as above
[7] = tested on: Fer (mouse); assay: as above
[8] = biological target: FGFR1 (UniProt P11362); assay: as above
[9] = biological target: Fes (UniProt P07332); assay: as above
[10] = biological target: FGFR3 (UniProt P22607); assay: as above
[11] = tested on: c-Src; assay: as above
[12] = tested on: AncSZ; assay: as above
[13] = biological target: Fyn (UniProt P06241); assay: as above
[14] = biological target: EPHB1 (UniProt P54762); assay: as above
[15] = biological target: Hck (UniProt P08631); assay: as above
[16] = biological target: EPHB2 (UniProt P29323); assay: as above
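Throughout, for SH2 binding enrichment of the phosphorylated peptide, bacterial display: peptide library displayed on the E. coli surface as eCPX fusions, selected cells deep-sequenced, score is each peptide's frequency after selection divided by its frequency in the input.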
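Throughout, for phosphorylation enrichment, bacterial display: 11-residue human phosphosite peptides and single-mutation variants displayed on the E. coli surface, counted by deep sequencing, each peptide's frequency after selection divided by its frequency in the unselected input library; frequency after pTyr selection over input frequency; kinase dosed for 20-30% of maximal phosphorylation in three min.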

Chain of EPHB1 (P54762 whole entry, looked up): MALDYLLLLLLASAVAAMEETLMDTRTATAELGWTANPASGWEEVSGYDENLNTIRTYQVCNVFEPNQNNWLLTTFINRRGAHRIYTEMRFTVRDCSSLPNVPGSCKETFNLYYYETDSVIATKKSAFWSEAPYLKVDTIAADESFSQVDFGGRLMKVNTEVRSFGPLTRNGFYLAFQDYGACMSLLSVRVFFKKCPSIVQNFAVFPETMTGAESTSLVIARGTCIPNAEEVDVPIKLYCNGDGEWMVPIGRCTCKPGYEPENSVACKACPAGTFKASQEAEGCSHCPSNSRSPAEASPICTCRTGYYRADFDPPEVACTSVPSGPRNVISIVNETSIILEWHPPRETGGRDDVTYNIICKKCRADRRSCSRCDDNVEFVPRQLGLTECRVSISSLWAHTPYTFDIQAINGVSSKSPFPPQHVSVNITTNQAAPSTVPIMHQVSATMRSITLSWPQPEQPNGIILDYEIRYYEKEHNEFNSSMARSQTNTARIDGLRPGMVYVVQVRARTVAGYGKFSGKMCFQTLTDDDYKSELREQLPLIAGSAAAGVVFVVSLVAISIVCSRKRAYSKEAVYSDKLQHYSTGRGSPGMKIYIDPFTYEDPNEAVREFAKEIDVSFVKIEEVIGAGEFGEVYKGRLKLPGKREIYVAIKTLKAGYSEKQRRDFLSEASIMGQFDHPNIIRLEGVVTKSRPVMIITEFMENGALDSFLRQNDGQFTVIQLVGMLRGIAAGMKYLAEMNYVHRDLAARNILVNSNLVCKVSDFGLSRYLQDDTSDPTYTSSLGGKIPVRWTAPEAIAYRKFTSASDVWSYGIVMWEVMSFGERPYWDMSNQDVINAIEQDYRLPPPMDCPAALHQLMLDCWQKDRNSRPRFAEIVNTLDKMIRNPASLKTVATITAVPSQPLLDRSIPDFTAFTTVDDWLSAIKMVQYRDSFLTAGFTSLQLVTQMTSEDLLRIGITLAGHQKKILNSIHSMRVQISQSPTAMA
Chain of Fyn (P06241 whole entry, looked up): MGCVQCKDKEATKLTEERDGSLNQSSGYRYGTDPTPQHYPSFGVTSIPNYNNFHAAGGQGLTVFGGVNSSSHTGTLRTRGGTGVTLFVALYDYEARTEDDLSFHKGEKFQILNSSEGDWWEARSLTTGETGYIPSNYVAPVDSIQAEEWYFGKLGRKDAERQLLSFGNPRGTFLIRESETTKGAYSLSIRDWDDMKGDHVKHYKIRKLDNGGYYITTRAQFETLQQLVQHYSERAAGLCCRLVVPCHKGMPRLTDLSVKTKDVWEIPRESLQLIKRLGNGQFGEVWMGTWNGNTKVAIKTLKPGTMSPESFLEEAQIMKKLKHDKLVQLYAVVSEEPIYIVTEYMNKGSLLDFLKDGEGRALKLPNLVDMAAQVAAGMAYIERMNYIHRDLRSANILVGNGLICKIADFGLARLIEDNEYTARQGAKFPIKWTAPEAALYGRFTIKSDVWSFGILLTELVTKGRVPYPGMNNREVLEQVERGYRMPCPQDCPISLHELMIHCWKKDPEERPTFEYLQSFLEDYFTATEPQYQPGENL
Chain of Hck (P08631 whole entry, looked up): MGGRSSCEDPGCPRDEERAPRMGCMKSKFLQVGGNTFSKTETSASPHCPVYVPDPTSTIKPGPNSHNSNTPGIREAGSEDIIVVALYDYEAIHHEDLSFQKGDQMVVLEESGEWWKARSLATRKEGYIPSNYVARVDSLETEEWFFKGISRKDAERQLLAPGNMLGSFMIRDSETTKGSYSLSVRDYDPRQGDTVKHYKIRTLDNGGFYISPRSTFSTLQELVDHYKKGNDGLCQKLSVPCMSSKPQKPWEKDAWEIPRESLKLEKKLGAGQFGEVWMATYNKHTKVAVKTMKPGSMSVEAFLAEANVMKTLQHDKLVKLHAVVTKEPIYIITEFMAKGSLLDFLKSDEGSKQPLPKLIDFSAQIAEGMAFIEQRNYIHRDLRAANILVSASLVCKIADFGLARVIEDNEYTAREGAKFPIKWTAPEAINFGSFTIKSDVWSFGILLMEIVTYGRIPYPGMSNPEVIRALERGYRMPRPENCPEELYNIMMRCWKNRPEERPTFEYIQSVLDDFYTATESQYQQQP
Chain of Jak2 (O60674 whole entry, looked up): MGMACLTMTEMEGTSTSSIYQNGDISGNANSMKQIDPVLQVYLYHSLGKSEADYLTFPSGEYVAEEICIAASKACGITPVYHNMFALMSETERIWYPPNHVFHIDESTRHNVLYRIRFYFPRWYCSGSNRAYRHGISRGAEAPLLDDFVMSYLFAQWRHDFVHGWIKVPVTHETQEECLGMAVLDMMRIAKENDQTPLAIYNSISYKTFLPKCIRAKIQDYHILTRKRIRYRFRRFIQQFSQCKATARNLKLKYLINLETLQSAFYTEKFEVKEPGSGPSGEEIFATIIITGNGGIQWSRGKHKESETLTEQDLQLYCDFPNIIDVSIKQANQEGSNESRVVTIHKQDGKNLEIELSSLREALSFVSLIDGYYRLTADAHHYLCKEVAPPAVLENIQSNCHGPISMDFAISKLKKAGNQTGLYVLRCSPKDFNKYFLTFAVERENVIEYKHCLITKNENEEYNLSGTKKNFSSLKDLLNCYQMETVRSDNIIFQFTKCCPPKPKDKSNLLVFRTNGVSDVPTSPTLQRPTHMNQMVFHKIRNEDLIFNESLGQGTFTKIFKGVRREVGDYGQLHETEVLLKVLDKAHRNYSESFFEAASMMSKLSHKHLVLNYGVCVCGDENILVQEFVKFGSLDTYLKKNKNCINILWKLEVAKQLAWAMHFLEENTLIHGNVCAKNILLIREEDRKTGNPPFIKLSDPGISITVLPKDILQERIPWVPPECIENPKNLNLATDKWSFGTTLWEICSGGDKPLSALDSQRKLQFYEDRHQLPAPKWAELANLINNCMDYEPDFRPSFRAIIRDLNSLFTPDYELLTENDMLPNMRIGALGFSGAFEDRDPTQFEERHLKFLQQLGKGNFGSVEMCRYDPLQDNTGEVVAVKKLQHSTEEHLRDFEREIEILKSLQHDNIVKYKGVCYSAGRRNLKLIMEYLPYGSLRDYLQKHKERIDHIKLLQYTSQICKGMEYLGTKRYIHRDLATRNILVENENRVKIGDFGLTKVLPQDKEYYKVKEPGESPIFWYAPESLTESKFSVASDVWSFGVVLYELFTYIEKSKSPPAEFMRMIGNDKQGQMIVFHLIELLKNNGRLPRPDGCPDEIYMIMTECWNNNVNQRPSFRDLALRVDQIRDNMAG
Chain of Fes (P07332 whole entry, looked up): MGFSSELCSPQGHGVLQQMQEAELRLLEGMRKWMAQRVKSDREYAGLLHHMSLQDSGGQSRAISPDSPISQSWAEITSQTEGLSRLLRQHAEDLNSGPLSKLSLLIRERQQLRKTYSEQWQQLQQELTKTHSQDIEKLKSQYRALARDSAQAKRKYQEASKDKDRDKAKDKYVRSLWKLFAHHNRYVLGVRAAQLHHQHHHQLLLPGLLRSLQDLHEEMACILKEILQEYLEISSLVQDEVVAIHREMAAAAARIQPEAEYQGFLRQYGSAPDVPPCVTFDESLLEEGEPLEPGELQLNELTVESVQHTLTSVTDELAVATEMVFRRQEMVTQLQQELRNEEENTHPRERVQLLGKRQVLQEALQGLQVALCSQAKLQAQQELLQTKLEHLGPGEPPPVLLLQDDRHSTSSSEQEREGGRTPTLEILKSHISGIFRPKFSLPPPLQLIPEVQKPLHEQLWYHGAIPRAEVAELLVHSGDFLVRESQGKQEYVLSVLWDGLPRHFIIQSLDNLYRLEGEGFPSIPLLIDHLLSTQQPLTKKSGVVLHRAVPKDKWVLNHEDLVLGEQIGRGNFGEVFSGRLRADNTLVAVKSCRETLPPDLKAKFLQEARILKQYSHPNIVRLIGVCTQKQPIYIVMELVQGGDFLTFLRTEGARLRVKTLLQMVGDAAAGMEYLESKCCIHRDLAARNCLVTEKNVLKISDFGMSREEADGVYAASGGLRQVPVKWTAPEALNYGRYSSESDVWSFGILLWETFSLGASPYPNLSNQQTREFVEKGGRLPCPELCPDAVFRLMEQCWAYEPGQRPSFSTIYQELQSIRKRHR
Chain of MERTK (Q12866 whole entry, looked up): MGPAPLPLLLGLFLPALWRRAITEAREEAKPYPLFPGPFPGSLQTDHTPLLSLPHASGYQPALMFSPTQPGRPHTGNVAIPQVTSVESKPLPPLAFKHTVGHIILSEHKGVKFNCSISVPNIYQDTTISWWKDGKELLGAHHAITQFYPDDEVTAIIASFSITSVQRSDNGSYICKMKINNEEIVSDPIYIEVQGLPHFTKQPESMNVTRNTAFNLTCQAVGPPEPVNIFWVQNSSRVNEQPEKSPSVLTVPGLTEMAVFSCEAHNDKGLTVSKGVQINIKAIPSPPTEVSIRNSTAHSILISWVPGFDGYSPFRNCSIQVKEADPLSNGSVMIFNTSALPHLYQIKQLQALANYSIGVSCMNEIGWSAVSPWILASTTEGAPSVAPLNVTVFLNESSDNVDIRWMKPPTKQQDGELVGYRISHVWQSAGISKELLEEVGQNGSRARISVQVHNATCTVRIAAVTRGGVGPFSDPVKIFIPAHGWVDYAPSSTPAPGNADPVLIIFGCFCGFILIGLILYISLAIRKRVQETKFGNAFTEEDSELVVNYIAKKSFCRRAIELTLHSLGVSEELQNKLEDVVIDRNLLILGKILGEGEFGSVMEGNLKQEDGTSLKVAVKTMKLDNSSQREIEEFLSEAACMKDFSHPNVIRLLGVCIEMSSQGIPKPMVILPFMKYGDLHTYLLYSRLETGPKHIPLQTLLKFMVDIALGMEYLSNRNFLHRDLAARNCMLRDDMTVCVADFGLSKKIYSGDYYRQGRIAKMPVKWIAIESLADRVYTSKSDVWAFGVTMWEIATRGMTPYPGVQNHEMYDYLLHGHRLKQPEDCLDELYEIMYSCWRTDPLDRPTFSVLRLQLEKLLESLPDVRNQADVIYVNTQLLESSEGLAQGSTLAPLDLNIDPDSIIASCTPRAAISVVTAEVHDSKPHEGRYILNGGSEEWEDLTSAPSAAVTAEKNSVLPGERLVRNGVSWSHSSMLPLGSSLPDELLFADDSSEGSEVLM

| SH2 binding enrichment [1] | SH2 binding enrichment [2] | SH2 binding enrichment [3] | Sequence | phosphorylation enrichment [4] | phosphorylation enrichment [5] | phosphorylation enrichment [6] | phosphorylation enrichment [7] | phosphorylation enrichment [8] | phosphorylation enrichment [9] | phosphorylation enrichment [10] | phosphorylation enrichment [11] | phosphorylation enrichment [12] | phosphorylation enrichment [13] | phosphorylation enrichment [14] | phosphorylation enrichment [15] | phosphorylation enrichment [16] |
| --- | --- | --- | --- | --- | --- | --- | --- | --- | --- | --- | --- | --- | --- | --- | --- | --- |
| 0.625 | 0.63 | 0.434 | SYCYRYRCAPR [SUMF1_Y344_A348P] | 0.459 | 0.458 | 0.493 | 0.528 | 0.511 | 0.572 | 0.716 | 0.488 | 0.644 | 0.436 | 0.441 | 0.43 | 0.418 |
| 0.887 | 0.651 | 0.521 | RASDYYSQQMA [GBP6_Y334_A331S] | 0.571 | 0.581 | 0.458 | 0.402 | 2.42 | 0.744 | 1.89 | 0.41 | 0.891 | 0.422 | 0.966 | 0.611 | 0.585 |
| 1.07 | 0.836 | 0.85 | CTTIHYNFMHN [TP53_Y234_C238H_YF] | 0.799 | 0.454 | 0.765 | 0.463 | 0.457 | 1 | 0.676 | 0.432 | 0.829 | 0.566 | 0.583 | 0.517 | 0.54 |
| 0.707 | 0.627 | 0.466 | RRAKGYPIDLY [ITGB2_Y125] | 1.34 | 1.17 | 0.868 | 0.73 | 0.718 | 1.29 | 0.889 | 1.28 | 1.07 | 0.787 | 0.684 | 1.18 | 0.87 |
| 0.941 | 0.651 | 0.487 | SVSVNYGDQVQ [GRAP_Y101] | 0.794 | 0.545 | 0.804 | 0.442 | 0.481 | 0.902 | 0.561 | 0.429 | 0.748 | 0.409 | 0.443 | 0.416 | 0.483 |
| 1.02 | 0.744 | 0.578 | VRSNHYDPEED [TJP1_Y1346] | 0.974 | 0.526 | 0.688 | 0.49 | 0.66 | 1.19 | 0.748 | 0.445 | 1.27 | 0.568 | 0.494 | 0.579 | 0.608 |
| 0.711 | 0.493 | 0.653 | QSSALYEDRYL [ASS1_Y83] | 1.01 | 1.1 | 0.61 | 7.79 | 0.56 | 1.12 | 0.74 | 1.2 | 1.15 | 0.997 | 3.12 | 4.44 | 2.45 |
| 0.969 | 0.8 | 0.818 | PLKFLYPNIDR [STAT1_Y668_K673R_YF] | 1.06 | 0.519 | 0.891 | 0.602 | 0.443 | 1.24 | 0.953 | 0.55 | 1.31 | 0.796 | 0.941 | 0.6 | 0.664 |
| 1.08 | 32.6 | 1.98 | RPPFTYATLIH [FOXP3_Y342_R347H] | 0.933 | 1.26 | 0.922 | 0.766 | 0.641 | 1.22 | 1.16 | 3.31 | 1.07 | 1.68 | 1.87 | 2.06 | 0.753 |
| 0.939 | 0.939 | 0.626 | FDDIAYIQKTL [PIK3CA_Y1021_R1023Q] | 0.952 | 0.529 | 0.591 | 0.352 | 0.503 | 0.819 | 0.6 | 0.485 | 0.832 | 0.479 | 0.425 | 0.488 | 0.68 |
| 1.43 | 1.23 | 0.993 | IGMLIYFARKA [VCAM1_Y718_I716L] | 0.703 | 0.496 | 0.508 | 0.425 | 0.461 | 0.846 | 0.456 | 0.424 | 0.934 | 0.453 | 0.518 | 0.536 | 0.481 |
| 1 | 0.518 | 0.548 | ATATEYHTTSH [SLC4A1_Y46_D45E] | 0.99 | 0.395 | 0.487 | 0.301 | 0.456 | 0.509 | 0.309 | 0.413 | 0.506 | 0.38 | 0.316 | 0.333 | 0.55 |
| 0.804 | 0.566 | 0.52 | KVDKEYEVHVR [GHR_Y226_R229H] | 0.725 | 0.416 | 0.576 | 0.498 | 0.474 | 0.956 | 0.555 | 0.444 | 0.934 | 0.485 | 0.68 | 0.497 | 0.548 |
| 1.1 | 0.848 | 0.656 | VSTKVYKRFPS [BEST1_Y148_A146K] | 0.47 | 0.365 | 0.505 | 0.422 | 0.384 | 0.605 | 0.305 | 0.425 | 0.445 | 0.366 | 0.344 | 0.352 | 0.348 |
| 0.768 | 0.787 | 2.15 | EYGFRYELVQY [UGGT2_Y1289] | 1.62 | 0.631 | 0.932 | 3.36 | 0.872 | 1.65 | 1.17 | 0.584 | 1.83 | 0.558 | 0.986 | 0.674 | 0.879 |
| 0.69 | 0.734 | 0.624 | LNPFIYSLRNC [OR1A2_Y288_W293C] | 1.11 | 1.04 | 0.792 | 1 | 0.902 | 2.72 | 1.2 | 6.28 | 1.45 | 4.37 | 0.826 | 5.22 | 1.24 |
| 0.757 | 0.497 | 0.481 | KELSSYKHLTL [SLIT2_Y776_N775S] | 0.491 | 0.404 | 0.511 | 0.497 | 0.393 | 0.53 | 0.406 | 0.451 | 0.556 | 0.427 | 0.315 | 0.445 | 0.38 |

| SH2 binding enrichment [1] | SH2 binding enrichment [2] | SH2 binding enrichment [3] | Sequence | phosphorylation enrichment [4] | phosphorylation enrichment [5] | phosphorylation enrichment [6] | phosphorylation enrichment [7] | phosphorylation enrichment [8] | phosphorylation enrichment [9] | phosphorylation enrichment [10] | phosphorylation enrichment [11] | phosphorylation enrichment [12] | phosphorylation enrichment [13] | phosphorylation enrichment [14] | phosphorylation enrichment [15] | phosphorylation enrichment [16] |
| --- | --- | --- | --- | --- | --- | --- | --- | --- | --- | --- | --- | --- | --- | --- | --- | --- |
| 0.938 | 0.412 | 0.404 | AGQERYRAITS [RAB11B_Y73] | 0.704 | 0.487 | 0.605 | 0.469 | 0.613 | 0.627 | 0.466 | 0.512 | 0.641 | 0.554 | 0.413 | 0.527 | 0.53 |
| 0.847 | 0.645 | 0.695 | RAEAPYLLVSN [LRIG1_Y1054_Q1053P] | 0.748 | 0.456 | 0.556 | 0.699 | 1.72 | 0.775 | 1.18 | 1.79 | 0.655 | 0.654 | 0.4 | 0.564 | 0.36 |
| 0.916 | 1.06 | 0.523 | PESCLYKESWL [IQGAP2_Y630] | 2.09 | 1.2 | 1.46 | 1.18 | 1.55 | 2.81 | 2.14 | 0.775 | 2.25 | 1.21 | 1.29 | 1.5 | 1.2 |
| 0.702 | 0.57 | 0.482 | GMAHNYRNSSQ [AASS_Y188] | 0.434 | 0.418 | 0.313 | 0.384 | 0.371 | 0.45 | 0.431 | 0.386 | 0.589 | 0.446 | 0.255 | 0.414 | 0.47 |
| 0.865 | 0.926 | 0.56 | SEKIVYGHLDD [ACO2_Y71] | 0.815 | 0.359 | 0.793 | 0.505 | 0.432 | 1 | 0.573 | 0.847 | 0.829 | 0.817 | 0.499 | 0.639 | 0.556 |
| 0.829 | 0.91 | 0.463 | KTGNIYRTEYG [MRPL3_Y265_M261T] | 0.414 | 0.425 | 0.441 | 0.629 | 0.464 | 0.633 | 0.592 | 0.424 | 0.555 | 0.488 | 0.451 | 0.496 | 0.421 |
| 0.889 | 0.581 | 0.432 | NETNKYQISVN [FGB_Y368_A365T] | 0.684 | 0.418 | 0.57 | 0.375 | 0.411 | 0.709 | 0.575 | 0.329 | 0.653 | 0.415 | 0.427 | 0.412 | 0.46 |
| 0.833 | 0.861 | 3.35 | SDQRRYSLIDR [CLIP2_Y972] | 0.479 | 0.419 | 0.467 | 0.412 | 0.356 | 0.558 | 0.421 | 0.358 | 0.508 | 0.394 | 0.327 | 0.366 | 0.444 |
| 0.641 | 0.793 | 0.568 | KVKSIYFHTQG [AR_Y916_P914S] | 0.614 | 0.379 | 0.563 | 0.367 | 0.414 | 0.718 | 0.544 | 0.436 | 0.69 | 0.51 | 0.542 | 0.414 | 0.449 |
| 0.711 | 0.447 | 0.501 | IALSKYGRVKR [FGF6_Y186] | 0.57 | 0.438 | 0.552 | 0.372 | 0.359 | 0.564 | 0.373 | 0.463 | 0.61 | 0.358 | 0.32 | 0.412 | 0.424 |
| 0.92 | 1.52 | 0.533 | VMSGPYELKAL [IL1B_Y140] | 0.463 | 0.351 | 0.481 | 0.447 | 0.419 | 0.622 | 0.57 | 0.873 | 0.51 | 0.564 | 0.303 | 0.491 | 0.512 |
| 0.949 | 0.512 | 0.624 | GKGGSYSKAEW [HLA-E_Y341] | 0.567 | 0.405 | 0.496 | 0.368 | 0.466 | 0.613 | 0.378 | 0.375 | 0.493 | 0.415 | 0.481 | 0.416 | 0.467 |
| 0.471 | 0.402 | 0.425 | ENEGTYVCIAA [ADAMTSL3_Y1365_T1370A] | 1.05 | 0.69 | 1.08 | 1.05 | 1.53 | 1.36 | 1.62 | 1.75 | 1.34 | 1.39 | 1.55 | 1.21 | 1.09 |
| 0.62 | 0.627 | 0.421 | VSLEAYCKHKY [RXRA_Y403_A398V] | 1.05 | 0.559 | 0.96 | 0.541 | 0.611 | 1.24 | 0.662 | 0.46 | 1.01 | 0.656 | 0.7 | 0.579 | 0.584 |
| 0.919 | 0.657 | 0.399 | MSNVPYVMNRG [ACAT1_Y161] | 0.572 | 0.474 | 0.527 | 0.377 | 0.464 | 0.619 | 0.594 | 0.478 | 0.734 | 0.426 | 0.368 | 0.399 | 0.421 |
| 0.902 | 0.704 | 1.34 | YCRHNYGAVES [HLA-DRB1_Y112_V114A] | 0.739 | 0.549 | 0.696 | 0.514 | 0.519 | 0.678 | 0.659 | 0.503 | 0.658 | 0.416 | 0.566 | 0.549 | 0.623 |
